# Data from patent publication US8962569B2, “Compositions comprising spp24 peptide fragments” (The Regeants of the University of California, priority 2010, dated 2015).
# T1: BMP-2 (Homo sapiens, UniProt P12643)
# T1 sequence (P12643 283-396): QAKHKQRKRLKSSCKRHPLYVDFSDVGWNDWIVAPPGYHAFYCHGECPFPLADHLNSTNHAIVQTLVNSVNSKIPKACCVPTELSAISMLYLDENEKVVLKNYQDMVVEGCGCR
# B1: noggin: an inhibitor of BMPs (protein, UniProt Q13253 28-232, looked up)
# Noggin: QHYLHIRPAPSDNLPLVDLIEHPDPIFDPKEKDLNETLLRSLLGGHYDPGFMATSPPEDRPGGGGGAAGGAEDLAELDQLLRQRPSGAMPSEIKGLEFSEGLAQGKKQRLSKKLRRKLQMWLWSQTFCPVLYAWNDLGSRFWPRYVKVGSCFSKRSCSVPEGMVCKPSKSVHLTVLRWRCQRRGGQRCGWIPIQYPIISECKCSC
# B2: spp24: recombinant His6-tagged bovine secreted phosphoprotein-24 kDa, residues 24 to 203 (SEQ ID NO:1), expressed in E. coli (protein)
# chain: MHHHHHHFPVYDYDPASLKEALSASVAKVNSQSLSPYLFRAFRSSVKRVNALDEDSLTMDLEFRIQETTCRRESEADPATCDFQRGYHVPVAVCRSTVRMSAEQVQNVWVRCHWSSSSGSSSSEEMFFGDILGSSTSRNSYLLGLTPDRSRGEPLYEPSREMRRNFPLGNRRYSNPWPRARVNPGFE
# modifications: N-terminal Met-His6 tag; Synthetic spp24
# How the values were obtained:
# BMP-2 [1] = target: T1, BMP-2; details: Behnam, 2005; cited from earlier work
# BMP-2 [2] = target: T1, BMP-2; details: cited from earlier work
# A549 = details: Feeley, 2006; cited from earlier work
# A549 cells [3] = experiment: Subcutaneous implantation of A549 cells and direct measurement of tumor size; assay type: in vivo, SCID mice; details: 8 weeks after co-injection with A549 cells; rhBMP-2 10 μg, spp24 1000 μg; cells alone 127.4±117.5; mean±SE per method
# Excerpt: (§1) Forty, eight-week-old male SCID mice (weight 23.5 to 29.1 g, mean 27.1 g) were housed under pathogen-free conditions in accordance with the protocol approved by the Chancellor's Animal Research Committee (ARC) at the University of California, Los Angeles. There were four experimental groups in this study, and each group underwent implantation of cells in both a subcutaneous model and an intra-tibial injection. Group I animals received A549 cells alone as a control group. […] Group III received an A549 cells+spp24 (1000 μg). […] There were 10 animals in each group.
# [4] = Stability of IMAC-purified His6-spp24 on frozen storage (2D SDS-PAGE); assay type: physicochemical; details: stored frozen (−20° C., 3 months) in 8 M urea in the presence of protease inhibitors
# Procedure: The proteins in representative fractions containing His6-spp24 and its degradation products were separated by 2D SDS-PAGE by the method of O'Farrell (O'Farrell P. H., J. Biol. Chem., 250, 4007-4021 (1975)) (Nancy Kendrick, Ph.D., Kendrick Laboratories, Madison, Wis.) (Behnam, 2005, Behnam, 2006; Behnam, 2002; and Behnam and Murray, 2005). These fractions had been stored at −20° C. for 3 months in urea buffer plus protease inhibitors, resulting in the slow accumulation of degradation products similar to those previously reported (Urist, 1987) that are not abundant in freshly-prepared fractions. The gel was stained with Coomassie Brilliant Blue, and the three major spots of the appropriate molecular weight (<24 kDa) were selected, excised, eluted, reduced in 5% β-mercaptoethanol, alkylated, trypsin digested, and subjected to peptide mass fingerprint analysis by MALDI/ToF MS (Mary Ann Gawinowicz, Ph.D., Protein Chemistry Core Facility, Howard Hughes Medical Institute, Columbia University, New York, N.Y.) to verify their identities and structures (Behnam, 2005, Behnam, 2006, Behnam, 2002; and Behnam and Murray, 2005). Methionines were not oxidized. Peptides with a mass [M+H^+]>1000 Da were analyzed. The peptide fingerprint was compared to those in the SWISS-PRO and NCBI databanks (Behnam, 2005, Behnam, 2006; Behnam, 2002; and Behnam and Murray, 2005). […]
# A549 cells [5] = experiment: Intratibial implantation of A549 cells and radiographic analysis; assay type: in vivo, SCID mice; details: 8 weeks
# Excerpt: as §1
# [6] = tested on: A549 human non-small cell lung cancer cells; experiment: A549 cell proliferation assay (Quick Cell Proliferation Assay); assay type: cell-based; details: 48 h
# Procedure: The human non-small cell lung cancer (NSCLC) cell line A549 was used in this study (ATCC, Manassas, Va., USA). A549 cells were maintained in DMEM with 10% FBS and antibiotics (Fisher scientific, Pittsburgh, Pa.) in a humidified incubator with 5% CO2 at 37° C. Cells were not used beyond 10 passages. Cells were plated in serum free medium at a density of 10,000 cells/well and allowed to attach for 24 h. […] Recombinant spp24 was prepared as described previously (Murray E J B, et al., Connect Tiss Res 2007; 48:1-8) and added in serum-free media to final concentrations of 10, 25, 50, 75 μg/ml. Cells were incubated for 48 h before cell proliferation was assessed using Quick Cell Proliferation Assay (BioVision, Mountain View, Calif., USA) according to manufacturer's recommendations. Results were reported as a percentage compared with untreated cells.
# A549 cells [7] = experiment: Histologic and histomorphometric analysis of A549 tumors (subcutaneous and tibiae); assay type: in vivo, SCID mice
# Excerpt: as §1
# Animals were killed at 8 weeks (or earlier if required by an excessive tumor size) and both the soft tissue tumor and the hind limb were harvested for histological analysis. Soft tissue tumors were fixed in 10% buffered formalin. The tibias were fixed in 10% buffered formalin followed by decalcification in a solution of 10% EDTA for 2 weeks at room temperature with gentle stirring. Longitudinal sections of the proximal tibia were prepared and stained with H&E. For histologic and histomorphometric analyses, all microscopic slides were scanned with a ScanScope GL (Aperio Technologies, Inc., Vista, Calif.) equipped with a 20× objective. The following parameters were considered in the qualitative analysis: amount of tumor cells between cortices from the proximal tibia; anterior and posterior cortical destruction and remodeling; new bone formation within the medullary canal; and anterior/posterior extension of bone formation outside the medullary canal. These histologic findings were graded with the following scale: 0 (none), 1 (mild), 2 (moderate), 3 (intense). Bone volume and tumor volume, expressed as a percentage of total tissue volume (% BV/TV and % TuV/TV, respectively) were quantified in whole-slide images using Spectrum software (Aperio Technologies, Inc. Vista, Calif.).
# [8] = Proteolysis of recombinant spp24 by MC3T3-E1 cell extracts (SDS-PAGE, anti-His6 Western blot); assay type: in vitro ADME, mouse; details: 37° C.; for time to essentially complete degradation of His6-spp24: presence of 4 mM calcium, MC3T3-E1 cell extracts
# Procedure: MC3T3-E1 mouse preosteoblastic cells were cultured to confluence, harvested by trypsinization, pelleted by centrifugation, and suspended in digestion buffer (100 mM HEPES-HCl, pH 7.5, 12.5 mM KCl, 6.25 mM (3-mercaptoethanol, and 0.2% Triton X-100) plus or minus 4 mM CaCl2 at a protein concentration of 2.4 mg/ml. Recombinant spp24 (residues 23 to 204) was exhaustively dialyzed vs. water, lyophilized, and resuspended at 1 mg/ml in digestion buffer (plus or minus 4 mM CaCl2). Equal volumes of cell extract and spp24 were combined, and incubated at 37° C. for 0 to 24 hours. At the intervals indicated, 4 μl aliquots equivalent to 2 μg spp24 were removed, subjected to SDS-PAGE, and Western blotted using antibody directed against the His6 tag as outlined in detail above.
# [9] = tibiae, grade 0 (none) to 3 (intense), mean
molecule,measurement,setting,value
"BBP: synthetic cyclic 19 amino acid peptide of the TRH1 domain of bovine spp24, CRSTVRMSAEQVQNVWVRC (SEQ ID NO: 8) [reference compound]",binding of BMP-2,BMP-2 [1],specifically binds BMP-2
same,effect on BMP-2-induced ectopic bone formation in vivo,"BMP-2 [2]; Behnam, 2005",enhances the rate and magnitude of BMP-2-induced ectopic bone formation in vivo
B1,effect on tumor growth,A549,reduce tumor growth
B2,subcutaneous tumor volume,A549 cells [3],12.6±21.6 mm3
same,susceptibility to proteolysis on storage,[4],highly susceptible to proteolysis
same,animals with minimal new bone formation,A549 cells [5],three of ten
same,average radiographic score,"A549 cells [5]; score 0 normal to 3 obliteration of two cortices, cells alone 2.1",0.5±0.6
same,effect on BMP-2 induced bone formation,"BMP-2 [2]; ectopic bone forming assay (Sintuu, 2008)",strongly inhibits BMP-2 induced bone formation
same,effect on A549 cell proliferation,"[6]; agent alone, serum-free media, rhBMP-2 0-500 ng/ml, spp24 10-75 μg/ml",slight dose-dependent inhibition of proliferation
same,effect of spp24 on BMP-stimulated A549 proliferation,[6]; spp24 added to the BMP treatment,attenuation of the BMP affect at all doses
same,% TuV/TV (tumor volume/total volume),"A549 cells [7]; longitudinal section of the proximal tibia at midline, mean",insufficient
same,tumor cells in histological specimens,"A549 cells [7]; subcutaneous and intratibial sites, 8 weeks",only a few scattered tumor cells
same,% BV/TV (bone volume/total volume),"A549 cells [7]; tibia section, mean",insufficient
same,Anterior cortex destruction (2),A549 cells [7]; [9],0
same,Extension of bone formation outside the medullary canal (5),A549 cells [7]; [9],0
same,New bone formation within the medullary canal (4),A549 cells [7]; [9],0
same,Posterior cortex destruction (3),A549 cells [7]; [9],0
same,Amount of tumor cells between cortices (1),"A549 cells [7]; tibiae, grade 0 (none), 1 (mild), 2 (moderate), 3 (intense), mean",0
same,degradation of His6-spp24 by MC3T3-E1 cell extracts,"[8]; absence of added calcium, 0 to 24 hours",essentially no degradation was observed until 24 hr
same,time to essentially complete degradation of His6-spp24,[8],≤ 2 h
same,time to essentially complete degradation of His6-spp24,[8]; listed as His6-spp24,about 2 hours
